The record followed here is PMC5370183, “Kinetics of the LOV domain of ZEITLUPE determine its circadian function in Arabidopsis” (eLife, 2017).

Data set [1] deals with the molecule itself. Put plainly: SEC; Superdex 200 10/300 analytical column in stabilizing buffer (50 mM Tris pH 7 or 50 mM Hepes pH 8 with 100 mM and 10% glycerol); apparent MW against standards; G80R in dark and light state.
Data set [2] concerns the molecule itself. Put plainly: SEC; R95A at 130 µM and 13 µM, dark and light state; elution not concentration dependent; dimer to monomers.

Some results are limits rather than exact numbers.

B1: WT ZTL 29–165 (ZEITLUPE LOV domain construct ZTL-S) (domain or fragment, Arabidopsis thaliana, UniProt Q94BT6 29-165, looked up)
chain: GGPIPYPVGNLLHTAPCGFVVTDAVEPDQPIIYVNTVFEMVTGYRAEEVLGGNCRFLQCRGPFAKRRHPLVDSMVVSEIRKCIDEGIEFQGELLNFRKDGSPLMNRLRLTPIYGDDDTITHIIGIQFFIETDIDLGP
notes: also called ZTL LOV domain
As to B1, the “stoichiometry N” value in data set [1] stood at 2.

B2: ZTL 29–165 V48I:G80R (domain or fragment, Arabidopsis thaliana, UniProt Q94BT6 29-165, looked up)
chain: GGPIPYPVGNLLHTAPCGFIVTDAVEPDQPIIYVNTVFEMVTGYRAEEVLGRNCRFLQCRGPFAKRRHPLVDSMVVSEIRKCIDEGIEFQGELLNFRKDGSPLMNRLRLTPIYGDDDTITHIIGIQFFIETDIDLGP
notes: Crystallised in the dark state (5SVV) and in the light state with the C4a adduct between C82 and FMN (5SVW)
In the case of B2, in data set [1], the “stoichiometry N” value is 2.

B3: ZTL 29–165 G46S:G80R (domain or fragment, Arabidopsis thaliana, UniProt Q94BT6 29-165, looked up)
chain: GGPIPYPVGNLLHTAPCSFVVTDAVEPDQPIIYVNTVFEMVTGYRAEEVLGRNCRFLQCRGPFAKRRHPLVDSMVVSEIRKCIDEGIEFQGELLNFRKDGSPLMNRLRLTPIYGDDDTITHIIGIQFFIETDIDLGP
B3: the “stoichiometry N” value in data set [1] was 2.

B4: ZTL 29–165 G80R (domain or fragment, Arabidopsis thaliana, UniProt Q94BT6 29-165, looked up)
chain: GGPIPYPVGNLLHTAPCGFVVTDAVEPDQPIIYVNTVFEMVTGYRAEEVLGRNCRFLQCRGPFAKRRHPLVDSMVVSEIRKCIDEGIEFQGELLNFRKDGSPLMNRLRLTPIYGDDDTITHIIGIQFFIETDIDLGP
notes: Tested by SEC in dark and light state
B4: the “stoichiometry N” value in data set [1] was determined as 2.

B5: ZTL 29–165 R95A (domain or fragment, Arabidopsis thaliana, UniProt Q94BT6 29-165, looked up)
chain: GGPIPYPVGNLLHTAPCGFVVTDAVEPDQPIIYVNTVFEMVTGYRAEEVLGGNCRFLQCRGPFAKRAHPLVDSMVVSEIRKCIDEGIEFQGELLNFRKDGSPLMNRLRLTPIYGDDDTITHIIGIQFFIETDIDLGP
Take B5: in data set [2], the dissociation constant (Kd) is below 200 nM and the “stoichiometry N” value amounted to 2.

B6: ZTL 16–165 (domain or fragment, Arabidopsis thaliana, UniProt Q94BT6 16-165, looked up)
chain: SLADDEEGGLFPGGGPIPYPVGNLLHTAPCGFVVTDAVEPDQPIIYVNTVFEMVTGYRAEEVLGGNCRFLQCRGPFAKRRHPLVDSMVVSEIRKCIDEGIEFQGELLNFRKDGSPLMNRLRLTPIYGDDDTITHIIGIQFFIETDIDLGP
notes: source: purified protein
On to B6, for which the “stoichiometry N” value in data set [1] was found to be 2.

B7: FKF1 28–174 (FLAVIN-BINDING, KELCH REPEAT, F-BOX 1 LOV domain) (domain or fragment, Arabidopsis thaliana, UniProt Q9C9W9 28-174, looked up)
chain: NDGIEEQVEDEKLPLEVGMFYYPMTPPSFIVSDALEPDFPLIYVNRVFEVFTGYRADEVLGRNCRFLQYRDPRAQRRHPLVDPVVVSEIRRCLEEGIEFQGELLNFRKDGTPLVNRLRLAPIRDDDGTITHVIGIQVFSETTIDLDR
notes: source: purified protein
As to B7, the “stoichiometry N” value in data set [1] turned out to be 2.

The term stoichiometry N denotes a count of units in the complex or per binding partner. Usually Kd stands for the free concentration of one partner at which half of the binding sites on the other are occupied at equilibrium, for simple one-to-one binding.
